# Reference: publication doi:10.1101/2024.04.22.590578
# Assays:
# Test in all cases: crystal structure
# [1] = molecular target: SARS-CoV-2 M^pro Y54C (SARS-CoV-2)
# [2] = molecular target: SARS-CoV-2 M^pro M49I (SARS-CoV-2)
# [3] = molecular target: SARS-CoV-2 M^pro K90R (SARS-CoV-2)
# [4] = molecular target: SARS-CoV-2 M^pro G15S (SARS-CoV-2)
# [5] = molecular target: SARS-CoV-2 M^pro P132H (SARS-CoV-2)
# [6] = molecular target: SARS-CoV-2 M^pro S46F (SARS-CoV-2)
# [7] = molecular target: SARS-CoV-2 M^pro V186F (SARS-CoV-2)
substance,measurement,setting,value
SARS-CoV-2 M^pro Y54C (enzyme),stoichiometry N,[1],2
SARS-CoV-2 M^pro M49I (enzyme),stoichiometry N,[2],2
SARS-CoV-2 M^pro K90R (enzyme),stoichiometry N,[3],2
SARS-CoV-2 M^pro G15S (enzyme),stoichiometry N,[4],2
SARS-CoV-2 M^pro P132H (enzyme),stoichiometry N,[5],2
SARS-CoV-2 M^pro S46F (enzyme),stoichiometry N,[6],2
SARS-CoV-2 M^pro V186F (enzyme),stoichiometry N,[7],2
